# Assay results published in IntAct's records for PubMed 19696784.
# B1: Microtubule protein alp7 (Schizosaccharomyces pombe (strain ATCC 38366 / 972)), Q9URY2 (parent)
# chain: MSDIVSSSTDYSRRSPSSSSIGTNETDHTGFHEKRQGASSESLIPPAQRSSEESMPAPKLFPKLTSKPNPQLNLKDTLNKRVSDRLQALELNKSFDFSGTPRPMHPISHPLSQHKTPEFKHRKRNVESILTPKNPSLFSSSNAASQRGSLNTAPSNFAYSHSSSLQTSASSRPPVLSNGSFPRQTNTAPLNPPVHLKDNIRNSATPSTSQADIPTQYPINSTQKQQAKYEAEIEGYKAKLAGTYHEISVLQNTIVNVSGQLIAVNDQLQQLRSGKASTSPSTKDTNMRLVEGHNEETLALQRGKYTQEEVDKLIQERMEKVAEDLHAQYSAKHTQKINAFKANYARKYEATIQELQNQIGTAPNAPKISNSNWEEERRALKADNQTLQKQLEKAIQERQDMSDFLNNFKADMAKSDKLLMQQQSQQTGDLETLRLQLQALQEELRVEREERQQLIQMSEDLVIAMDQLNLEQKS
# partner: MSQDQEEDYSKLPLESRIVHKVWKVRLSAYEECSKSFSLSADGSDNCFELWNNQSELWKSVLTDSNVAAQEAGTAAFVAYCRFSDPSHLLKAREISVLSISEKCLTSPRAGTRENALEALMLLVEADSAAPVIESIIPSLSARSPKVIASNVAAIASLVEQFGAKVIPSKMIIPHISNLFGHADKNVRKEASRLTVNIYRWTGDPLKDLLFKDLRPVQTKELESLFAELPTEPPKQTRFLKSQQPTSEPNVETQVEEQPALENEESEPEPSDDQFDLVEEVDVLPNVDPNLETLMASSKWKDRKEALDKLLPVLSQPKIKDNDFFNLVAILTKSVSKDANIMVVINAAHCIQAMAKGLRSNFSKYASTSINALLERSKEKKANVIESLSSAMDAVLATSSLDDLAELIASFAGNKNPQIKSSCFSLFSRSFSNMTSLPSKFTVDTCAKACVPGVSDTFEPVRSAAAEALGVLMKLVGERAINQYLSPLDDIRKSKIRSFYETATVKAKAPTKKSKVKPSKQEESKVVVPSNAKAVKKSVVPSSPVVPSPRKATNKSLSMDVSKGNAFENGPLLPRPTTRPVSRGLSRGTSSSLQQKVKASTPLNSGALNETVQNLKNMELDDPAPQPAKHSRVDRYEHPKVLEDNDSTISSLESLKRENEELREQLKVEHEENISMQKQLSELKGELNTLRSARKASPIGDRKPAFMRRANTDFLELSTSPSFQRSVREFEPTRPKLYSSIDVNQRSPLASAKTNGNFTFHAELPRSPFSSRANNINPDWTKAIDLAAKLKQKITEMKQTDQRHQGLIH
# Variants of: B1
# Settings: with alp14_schpo alp14, O94534
row,Variant,effect of a mutation on the interaction
1,MSDIVSSSTDYSRRSPSSSSIGTNETDHTGFHEKRQGASSESLIPPAQRSSEESMPAPKLFPKLTSKPNPQLNLKDTLNKRVSDRLQALELNKSFDFSGTPRPMHPISHPLSQHKTPEFKHRKRNVESILTPKNPSLFSSSNAASQRGSLNTAPSNFAYSHSSSLQTSASSRPPVLSNGSFPRQTNTAPLNPPVHLKDNIRNSATPSTSQADIPTQYPINSTQKQQAKYEAEIEGYKAKLAGTYHEISVLQNTIVNVSGQLIAVNDQLQQLRSGKASTSPSTKDTNMRLVEGHNEETLALQRGKYTQEEVDKLIQERMEKVAEDLHAQYSAKHTQKINAFKANYARKYEATIQELQNQIGTAPNAPKISNSNWEEERRALKADNQTLQKQLEKAIQERQDMSDFLNNFKADMAKSDKLLMQQQSQQTGDLETLRLQLQALQEELRVEREERQQLIQMSEDAVIAMDQLNLEQKS [L461A],disrupting interaction
